133 substances from the supplement of paper PMC12042874 can be followed below.

± gives the uncertainty stated by the source.

This series is described as follows: amyloid nucleation score (Sup35N fusion, yeast selection) (log enrichment); library NNK3; higher = more nucleation; inactive = no reads after selection. In short, it runs like this: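 DiMSum was used to calculate nucleation scores as log enrichment of output over input reads, centred on the mode score of non-aggregating sequences. Sequences with fewer than 100 input reads were not scored. Input and output came from Illumina sequencing of plasmid inserts in psi-negative yeast expressing peptides of 20 random codons fused to Sup35N, induced 24 hours with 100 μM copper sulfate and then grown 7 days at 30°C on medium lacking adenine and uracil.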
As for TLDVQGTCH, the amyloid nucleation score entry is “inactive”.

As for RDHWNELGRDYGWTLCKKAY, the amyloid nucleation score entry is “inactive”.

Regarding EQSLFES, the amyloid nucleation score result is “inactive”.

On to LRSFGYRRQ, for which the amyloid nucleation score entry is “inactive”.

As for RECDFFLWAYYLVNIQLRVQ, the amyloid nucleation score is -0.27 ± 0.66.

For the substance GRQYVCYYTFLKLYWLKSMW, the amyloid nucleation score result was “inactive”.

Consider TSAYGMSSWGFWS, for which the amyloid nucleation score result is “inactive”.

With YAVCSSLKYLIVESSKLTSV, the amyloid nucleation score came out at 0.038 ± 0.36.

For the substance RVKRYSMELGIFLDLRVT, the amyloid nucleation score result was “inactive”.

Consider WCCHRAFLYI, for which the amyloid nucleation score entry was “inactive”.

The substance SMINKRR gave an amyloid nucleation score of 1.16 ± 0.15.

On to VREFYN, for which the amyloid nucleation score entry is “inactive”.

LVHIGFWCEVVQPLSCTDTS yielded an amyloid nucleation score of 0.028 ± 0.65.

Substance WGCYSWTMVRS registered an amyloid nucleation score of 1.33 ± 0.16.

Substance RISLCVHFILFCFPSSRQSL had an amyloid nucleation score of 0.815 ± 0.12.

As to MAMDCLISTALVLLVKYASV, the amyloid nucleation score result was “inactive”.

On to SLRLSCVDVQVNN, for which the amyloid nucleation score is -0.253 ± 0.9.

Consider FIALIYVIIPDIEGSVYVSN, for which the amyloid nucleation score entry was “inactive”.

Regarding AMLLCTYFRKAVYLNAK, the amyloid nucleation score result is “inactive”.

As to DDPQVGLNFAQSYALPEYFA, the amyloid nucleation score result is “inactive”.

Regarding YRFVRGWFRMRIERPAAPCT, the amyloid nucleation score result is “inactive”.

With LREMGLHYWGD, the amyloid nucleation score result was “inactive”.

Consider NCRVMITVIYTICNVVFLSC, for which the amyloid nucleation score result was “inactive”.

Consider FAYITHLKKYKSWTVPWTYY, for which the amyloid nucleation score entry was “inactive”.

TYLLYCCVVVR: the amyloid nucleation score result is “inactive”.

On to AWQYVGMISFM, for which the amyloid nucleation score result is “inactive”.

KSTSFTYFLLNIRLMGYCPC showed an amyloid nucleation score of 0.725 ± 0.16.

RRFVNVLGMHC registered an amyloid nucleation score of 0.693 ± 0.16.

For SSPRPLCPDLRLVDIIQILI, the amyloid nucleation score entry was “inactive”.

With FMVWYREMDLVLVAQREEYK, the amyloid nucleation score entry is “inactive”.

In the case of NMVPNCDLLMKSRLKVSNSA, the amyloid nucleation score result is “inactive”.

For FMIFDWVTYIKVTVKCWW, the amyloid nucleation score result was “inactive”.

On to CNKGSNTYVVDYAVGNGH, for which the amyloid nucleation score entry was “inactive”.

As to SLGNYHTLGMVFRLA, the amyloid nucleation score is -0.093 ± 0.48.

As to FPICWLRVVDLALFKWMYNF, the amyloid nucleation score result was “inactive”.

QARKDDDKAQNKCSR: the amyloid nucleation score result is “inactive”.

For the substance RRVGSWTYVSFSDGI, the amyloid nucleation score turned out to be 0.239 ± 0.41.

In turn, IYISFWR came in with an amyloid nucleation score of 0.521 ± 0.2.

Consider YSTMRS, for which the amyloid nucleation score result is “inactive”.

LIASLRIWPRESMPR: the amyloid nucleation score result is “inactive”.

For FVRANYIWWNSWYLECYIGR, the amyloid nucleation score entry was “inactive”.

As for ETLGFVSMCHDSLMHNH, the amyloid nucleation score entry is “inactive”.

On to ASLISILLALDMSMGLSLEP, for which the amyloid nucleation score entry was “inactive”.

AICSPTLLDYYFLFKVLPGS: the amyloid nucleation score entry is “inactive”.

WNLVPSHMFFV: the amyloid nucleation score entry was “inactive”.

QYVYLCRYLNMRPACYDMVV yielded an amyloid nucleation score of -0.329 ± 0.8.

With PRCVC, the amyloid nucleation score entry is “inactive”.

With SLGYGDI, the amyloid nucleation score result was “inactive”.

For SWVFFD, the amyloid nucleation score result was “inactive”.

As for LRGTMGEV, the amyloid nucleation score result was “inactive”.

Take DIVGHIKSLMFLVLEDTSSP: the amyloid nucleation score result is “inactive”.

As for WYMHTTLD, the amyloid nucleation score result is “inactive”.

Take DSCKPCQKPTAIHVYMVEFP: the amyloid nucleation score result was “inactive”.

As to SQYIWFFSVVLSFFSSVSWC, the amyloid nucleation score was -0.021 ± 0.85.

With SDCCYRTYVEIQKWSLVF, the amyloid nucleation score result was “inactive”.

As for DLSKTGTSNNLLFTERISDI, the amyloid nucleation score entry is “inactive”.

For the substance IIFFYGGS, the amyloid nucleation score was 1.9 ± 0.08.

For RLMVL, the amyloid nucleation score result was “inactive”.

Consider ACLLLSDLNY, for which the amyloid nucleation score result was “inactive”.

Take SVSRFKWGFKQAQWDKQRRY: the amyloid nucleation score result was “inactive”.

As for LKGVYSERPNRDAG, the amyloid nucleation score entry was “inactive”.

As to SSVVT, the amyloid nucleation score result is “inactive”.

LLMDYYFVGLKLVPFAVPKV returned an amyloid nucleation score of 1.22 ± 0.15.

As to IKQGYRAHLWWIVVNRLMFD, the amyloid nucleation score entry is “inactive”.

For AGYGSVSRLSMEKMEFNQ, the amyloid nucleation score entry is “inactive”.

As for VMMFYNILHSQIDKLFKLLA, the amyloid nucleation score result is “inactive”.

For RPKTTH, the amyloid nucleation score result is “inactive”.

Turning to FSALQWGSRTYIFVYSGNMS, the amyloid nucleation score turned out to be 0.658 ± 0.24.

For the substance LYRVVSLSYAVCLILSRCFT, the amyloid nucleation score entry was “inactive”.

Regarding HKNEVKWFFFQPGKEMLGGR, the amyloid nucleation score result is “inactive”.

Consider MFYVVLSYK, for which the amyloid nucleation score stood at 0.071 ± 0.38.

Consider VVYYFKMLMGVTLYSMVIWQ, for which the amyloid nucleation score entry was “inactive”.

With PLPAYCGYVLIGVHGYPFDI, the amyloid nucleation score result is “inactive”.

For the substance FYMWFMRTGLTKYPNGAIKV, the amyloid nucleation score entry was “inactive”.

Consider GVGNWKP, for which the amyloid nucleation score entry was “inactive”.

EGFIVSRISAGDRSGDMEGC: the amyloid nucleation score entry is “inactive”.

Turning to GLTVCTSYLSISAYDMYANL, the amyloid nucleation score was found to be 1.29 ± 0.067.

Regarding IYIKCFNVSFLRSADWSKCA, the amyloid nucleation score entry is “inactive”.

As to MLARHCQQGGRDHPWLGSVL, the amyloid nucleation score entry was “inactive”.

Turning to FFIDFVGTRCFN, the amyloid nucleation score entry was “inactive”.

In the case of VIGRVRIGLVFRSTIGFSEG, the amyloid nucleation score entry is “inactive”.

Consider LHLAMSRTLSHSPHSCV, for which the amyloid nucleation score entry was “inactive”.

Regarding FAQFLG, the amyloid nucleation score result is “inactive”.

Turning to SFFRNRGGEDFFISWWFENN, the amyloid nucleation score result was “inactive”.

Take LKSWDTIWVEDNYSLC: the amyloid nucleation score was -0.148 ± 0.81.

As for VVYYWSVRITAVQHYWHLYT, the amyloid nucleation score result was “inactive”.

As for GVSILCLVLWSMWTLGGESW, the amyloid nucleation score result was “inactive”.

As to YFGGRM, the amyloid nucleation score result is “inactive”.

For RFKCSTNGCRTFRGHHYNVK, the amyloid nucleation score entry is “inactive”.

In the case of SLGRFDLMCHTKYLSTTVVF, the amyloid nucleation score entry was “inactive”.

As for LYDTDSCLSSYCSPFRHPRY, the amyloid nucleation score result is “inactive”.

Regarding APIVKL, the amyloid nucleation score result is “inactive”.

For SMVVERGNQRLRSTYYADCV, the amyloid nucleation score result was “inactive”.

Regarding WMCVLCCSVRNIGKTYKSCL, the amyloid nucleation score entry is “inactive”.

Consider LLYARVIRRMCPKVVLFLSD, for which the amyloid nucleation score result is “inactive”.

SDCSIHKSGYVTDTACDVFD: the amyloid nucleation score entry was “inactive”.

On to GNDNYVVLFNCDV, for which the amyloid nucleation score result was “inactive”.

As to AKIVECM, the amyloid nucleation score result is “inactive”.

Turning to RYVRCNRMWIIDLDEHARGK, the amyloid nucleation score result was “inactive”.

As to SLRSCGSGLRSYRAVKTLPG, the amyloid nucleation score entry is “inactive”.

Take MYLNNFAWRVTVWNIFVHAL: the amyloid nucleation score came to 0.512 ± 0.16.

For the substance RVFGCKKGGSRLW, the amyloid nucleation score entry was “inactive”.

Regarding FSAMTPSGRWHDRSRSDVIN, the amyloid nucleation score entry was “inactive”.

Turning to FTSQYIYDAIRRLRKMSIMS, the amyloid nucleation score result is “inactive”.

For the substance ISFNFHSSSTGRA, the amyloid nucleation score amounted to 1.38 ± 0.11.

With SRWLSDSEIENKWFLISDMT, the amyloid nucleation score result is “inactive”.

Turning to WIWSGMYSNWPNSAPVNIR, the amyloid nucleation score entry was “inactive”.

For the substance KIQRYNILSGTCVFI, the amyloid nucleation score was found to be 1.51 ± 0.089.

Turning to KEDLTSLVTLEKEALLVSDE, the amyloid nucleation score result was “inactive”.

As to SSNDPQHHVDAGEADQRSRV, the amyloid nucleation score entry is “inactive”.

WLNEM: the amyloid nucleation score result is “inactive”.

Consider VVMIPNIFCDWRGNGNNQCG, for which the amyloid nucleation score worked out at 1.33 ± 0.11.

Regarding SWWKDLVYD, the amyloid nucleation score result was “inactive”.

As to FECDKENSSLDSPFMLAFKD, the amyloid nucleation score entry is “inactive”.

With CFFINRRTLKGLT, the amyloid nucleation score entry was “inactive”.

As for YQGKLI, the amyloid nucleation score entry is “inactive”.

SIYDSVFKMFCVWIVTSVLF: the amyloid nucleation score result was “inactive”.

Take VPDLYSTEDGFSCCVSEYCT: the amyloid nucleation score result was “inactive”.

With DSVVRTSQMSVGYMCVRAEF, the amyloid nucleation score entry was “inactive”.

On to PVYERPRCQNFLGCYWSCAQ, for which the amyloid nucleation score entry is “inactive”.

Regarding TFCVQYESRFRFQESESLHM, the amyloid nucleation score result is “inactive”.

Consider RSDSADLIKG, for which the amyloid nucleation score result is “inactive”.

Turning to IPCLQVYFTSTPNPSWSHGH, the amyloid nucleation score result is “inactive”.

In turn, LSIYGDPAYCALFAYECLWL had an amyloid nucleation score of 1.93 ± 0.06.

Turning to YSYIEGL, the amyloid nucleation score entry is “inactive”.

Substance AILEVLT displayed an amyloid nucleation score of 0.671 ± 0.17.

On to LLRRLYLTLACPFYLMHTKC, for which the amyloid nucleation score entry is “inactive”.

As to TTFATSCNMWYHRSILHS, the amyloid nucleation score result was “inactive”.

For FVTRHLNFCM, the amyloid nucleation score entry was “inactive”.

Take RLGRSLRLIVMITG: the amyloid nucleation score result is “inactive”.

IGIIFSKVWSPPDDMHT registered an amyloid nucleation score of 1.28 ± 0.095.

On to PRLKFASYVMEMPLKFGEGI, for which the amyloid nucleation score entry was “inactive”.

Turning to KLVICYCGYNHDCVVCTKRE, the amyloid nucleation score was found to be 1.56 ± 0.094.
